For one assay, the system named is colon cancer cell lines. Put plainly: Flow cytometry (FACS) with anti-TMEM-180 IgM clones, colon cancer. Type of assay: binding. As to conditions: six types of colon cancers; FIG. 3. The protocol: (§1) Cancer cells targeted for measurement were cultured in medium and then added to a V-bottom 96-well plate (Corning Incorporated) to a concentration of 1×10^5 cells/well. The plate was centrifuged for 3 minutes at 440×g and 4° C. followed by removing the supernatant, adding antibody-producing hybridoma culture supernatant or antibody solution to the cell pellet at 50 μL/well and suspending therein. After allowing to react for 45 minutes on ice, the plate was washed three times with a mixture of 0.1% BSA, 2 mM EDTA and PBS at 200 μL/well. The supernatant was removed and secondary antibody was added to the cell pellet at 50 μL/well followed by suspending the cells therein. ALEXAFLUOR 647@ (fluorescent compound) goat anti-rat IgG (H-L) (Life Technologies Corporation) was used for the secondary antibody after diluting 400-fold with a mixture of 0.1% BSA, 2 mM EDTA and PBS. After allowing to react for 45 minutes on ice, the plate was washed three times with a mixture of 0.1% BSA, 2 mM EDTA and PBS at 200 μL/well. After removing the supernatant, 50 ng/mL of propidium iodide, 0.1% BSA, 2 mM EDTA and PBS were added to the cell pellet at 250 µL/well followed by suspending therein. The cells stained in this manner were measured using a flow cytometer such as the Guava easyCyte 8HT (Merck Millipore Corporation) followed by analysis of the resulting data using FlowJO (Tomy Digital Biology Co., Ltd.). FACS analysis was carried out using colon cancer, brain tumor and hematologic cancer.
In general terms: Flow cytometry measures light scatter and fluorescence of single cells or particles in a stream.

The test system of the next assay is brain tumor cell lines. Nature of the assay: Flow cytometry (FACS) with anti-TMEM-180 IgM clones, brain tumor. As to conditions: four types of brain tumors; FIG. 3. In kind it is binding. The protocol:
as §1

The next assay deals with DLD-1 colon cancer cells. Nature of the assay: Fluorescent immunostaining of DLD-1 colon cancer cells. Type of assay: binding, human. The conditions noted are these: fixed and permeabilized DLD-1; antibody concentrations of clones not aligned; FIG. 4. The protocol:
DLD-1 cells were added to a 96-well plate (Corning Incorporated, CeIIBIND) to a concentration of 5×10^3 cells/well and subjected to cell staining after culturing for 2 days. The cells were subjected to fixation and permeation treatment in the manner indicated below. After washing the cell culturing plate twice with PBS at 200 μL/well, the washings were removed followed by the addition of 4% para-formaldehyde-phosphate buffer (Wako Pure Chemical Industries, Ltd.) containing 0.1% TRITON™ (surfactant) X-100 (Wako Pure Chemical Industries, Ltd.) at 100 µL/well while cooling with ice and fixing the cells for 10 minutes. After removing the fixation solution, the plate was washed once with PBS at 200 μL/well and once with a mixture of 1% FBS in PBS at 200 μL/well to obtain a cell-immobilized plate. The cells were stained in the manner indicated below. Namely, after removing medium from the non-immobilized cell culturing plate and removing washings from the cell-immobilized plate, […] hybridoma culture supernatant or diluted antibody solution was added at 50 μL/well. After allowing to react for 1 hour on ice, the plate was washed once with PBS at 200 μL/well and twice with a mixture of 1% FBS in PBS at 200 μL/well. After removing the washings, a mixture of 5 μg/mL ALEXAFLUOR 647@ (fluorescent compound) goat anti-rat IgG (H-L), 2 μg/mL Hoechst 33342 and 1% FBS/PBS was added at 50 μL/well. After allowing to react for 1 hour on ice, the plate was washed twice with PBS at 200 μL/well. PBS was then added at 50 μL/well followed by measuring with ArrayScan (Thermo Fisher Scientific Inc.).

Another assay concerns the target T1, TMEM-180 (Homo sapiens, UniProt Q14CX5).
T1 construct: endogenous in cells; host or cells: DLD-1 colon cancer cell line (parent / wild type); culture supernatant exosomes in A20
T1 sequence (Q14CX5 1-517): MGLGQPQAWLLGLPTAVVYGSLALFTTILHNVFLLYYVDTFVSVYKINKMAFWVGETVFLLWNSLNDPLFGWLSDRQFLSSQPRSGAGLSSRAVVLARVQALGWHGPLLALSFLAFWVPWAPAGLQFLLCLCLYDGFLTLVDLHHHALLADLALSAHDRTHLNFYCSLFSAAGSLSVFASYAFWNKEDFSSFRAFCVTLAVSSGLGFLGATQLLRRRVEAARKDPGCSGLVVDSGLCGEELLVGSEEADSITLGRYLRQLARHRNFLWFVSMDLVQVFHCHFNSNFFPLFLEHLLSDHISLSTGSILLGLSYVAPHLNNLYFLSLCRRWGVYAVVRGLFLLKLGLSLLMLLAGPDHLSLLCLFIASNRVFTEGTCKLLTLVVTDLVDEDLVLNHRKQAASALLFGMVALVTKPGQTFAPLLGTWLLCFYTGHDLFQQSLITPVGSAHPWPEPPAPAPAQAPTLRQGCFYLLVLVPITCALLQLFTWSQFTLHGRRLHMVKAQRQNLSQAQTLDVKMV
Nature of the assay: FACS of DLD-1 parent line and TMEM-180 knockout line. In kind it is binding. The protocol: The plate was centrifuged for 3 minutes at 440×g and 4° C. followed by removing the supernatant, adding antibody-producing hybridoma culture supernatant or antibody solution to the cell pellet at 50 μL/well and suspending therein. After allowing to react for 45 minutes on ice, the plate was washed three times with a mixture of 0.1% BSA, 2 mM EDTA and PBS at 200 μL/well. The supernatant was removed and secondary antibody was added to the cell pellet at 50 μL/well followed by suspending the cells therein. […] After allowing to react for 45 minutes on ice, the plate was washed three times with a mixture of 0.1% BSA, 2 mM EDTA and PBS at 200 μL/well. […] The cells stained in this manner were measured using a flow cytometer such as the Guava easyCyte 8HT (Merck Millipore Corporation) followed by analysis of the resulting data using FlowJO (Tomy Digital Biology Co., Ltd.). FACS analysis was carried out using colon cancer, brain tumor and hematologic cancer.
Flow cytometry was carried out in accordance with the procedure described in the above-mentioned section 3. […] The supernatant of a culture of hybridoma producing rat IgM antibody clone 365 was used as a negative control after similarly diluting to 1 μg/mL. […] A mixture of RPMI and 10% FBS was used to dilute each of the antibodies. Furthermore, antibody concentration in the hybridoma culture supernatant was measured by rat IgM-specific ELISA (Bethyl Laboratories).

Assay [1] relates to cell lines derived from cancers (ATCC and JCRB). Put plainly: Reactivity of antibodies to cancer-derived cell lines by FACS (Table 23). Type of assay: binding. The conditions noted are these: Cancer Type: Colon. The protocol:
as §1
Cancer-detection rates were tested using monoclonal antibodies (the 669 antibody, 1052 antibody, 1105 antibody, and 1361 antibody).
In this Example, the reactivity of the antibodies to the cell lines derived from cancers which were obtained from ATCC and JCRB was analyzed by FACS.

Assay [2] has the same test system. The assay is described as above. In kind it is binding.
Another assay deals with colon cancer DLD-1 cells. Nature of the assay: Cytocidal effect of anti-TMEM-180 IgM antibody (WST-8), DLD-1. In kind it is cell-based, human. As to conditions: hybridoma culture supernatant adjusted to 80, 20 or 5 μg/mL, 96 hours, FIGS. 7 and 8. Here is the method:
(§2) DLD-1 cells and K562 cells were added to a 96-well plate at 1×10^3 cells/100 μL/well followed by culturing for 24 hours. 50 μL of medium were removed from each well of the 96-well plate followed by the addition of rat IgM antibody clone 98-producing hybridoma culture supernatant or rat IgM antibody clone 101-producing hybridoma culture supernatant, in which antibody concentration had been adjusted to 80 μg/mL, 20 μg/mL or 5 μg/mL, at 50 μL/well. Here, n number in each culture condition was 3, and wells containing medium only were prepared as controls. […] After culturing for 96 hours, WST-8 (Dojindo Laboratories, Cell Counting Kit-8) was added at 10 μL/well followed by measuring absorbance at 450 nm with a microplate reader after culturing for 3 hours. The relative values of absorbance at each antibody concentration were plotted by plotting antibody concentration on the horizontal axis and assigning a value of 1 to the optical absorbance of the well containing medium only. […] Cytocidal effects were also observed for other colon cancer cells Difi, Carl, SW480 and Colo201.
For orientation: Formazan colour is commonly taken as a measure of viable cells.

Assay [3] relates to hematologic tumor K562 cells. Nature of the assay: Cytocidal effect of anti-TMEM-180 IgM antibody (WST-8), K562. Type of assay: cell-based. The conditions noted are these: hybridoma culture supernatant adjusted to 80, 20 or 5 μg/mL, 96 hours, FIGS. 7 and 8. Here is the method:
as §2

Positions count from the first letter of the chain named.

B1: clone 212: rat IgM anti-TMEM-180 monoclonal antibody; variable regions SEQ ID NOs: 46 and 47 (antibody, V domains shown)
VH: MDIRLSLAFLVLFIKGVQCEVQLVESGGGLVQPGNSLKLSCAASGFTFSDYAMAWVRQSPKKGLEWVATIIYDGSSTYYRDSVKGRFTISRDNAKSTLYLQMDSLRSEDTATYYCATHWYWYFDFWGPGTMVTVSS
VL: MGVPTQLLGLLLLWITDAICDIQMTQSPASLSASLGETVSIECLASEGISNDLAWYQQKSGKSPQLLIYAASRLQDGVPSRFSGSGSGTRYSLKISGMQPEDEADYFCQQSYKYPLTFGSGTKLEIK
As to B1, in the assay with colon cancer cell lines, the “FACS reactivity to colon cancers” value is “positive for all six types of colon cancers”. The “FACS reactivity to brain tumors” value in the assay with brain tumor cell lines is “positive for only one type of brain tumor”. In the assay on DLD-1 colon cancer cells, the “fluorescent immunostaining (pattern, intensity)” value was “weaker fluorescence intensity than clone 98 and the cytoplasm was also stained”.

B2: rat-human chimeric antibody clone 98: rat-human chimeric IgG1 antibody carrying clone 98 variable regions (antibody, V domains shown)
VH: QVQLKESGPGLVQPSQTLSLTCTVSGFSLTRYNVHWVRQPTGKGLEWMGVIWTGGSTDYNSALKSRLSISRDTSKSQVFLKMNSLQTEDIATYYCARDLGYWGQGVMVTVSS
VL: DIVMTQTPLSLSVAIGQSASISCKSSQSLKYRDGKTYLNWVFQSPGQSPKRLIYQVSKLDSGVPDRFSGTGSETDFTLKISRVEAEDLGVYYCCQGSYSPHTFGAGTKLELK
Consider B2, for which the “FACS shift, TMEM-180 knockout line versus parent line” value in the assay with TMEM-180 (DLD-1 parent line vs TMEM-180 knockout line, FIG. 5) was “considerable left shift”. The “specific recognition of TMEM-180” value with TMEM-180 (conclusion from DLD-1 parent vs knockout FACS) is listed as “specifically recognize TMEM-180”.

B3: clone 1052: rat IgM anti-TMEM-180 monoclonal antibody; variable regions SEQ ID NOs: 94 and 95 (antibody, V domains shown)
VH: MAVLVLLLCLVTFPSCVLSQVQLKESGPGLMQPSETLSLTCTVSGFSLTSNGVGWVRQPLGKGLVWMGTIWTGGGTNYNSGVQSRLSISRDTSKSQVFLKMNSLQPEDTGTYYCAREYMGFDYWGQGVMVTVSS
VL: MELISQVFVFLLLWLSGVYGNTVMTQSPTSMFTSVGDRVTMSCKASQNVGINVGWYQQKTGQSPKRLIYWASNRDTGVPDRFTGSGSGTDFTLTISNMQAEDPAIYYCLQHNSYPRTFGGGTKLELK
Regarding B3, the “Detection Sensitivity of Cancers, P/N” value in assay [1] is “(3/10)”; in assay [2] (Cancer Type: Bladder), “(2/4)”; in assay [2] (Cancer Type: Brest), “(3/6)”; in assay [2] (Cancer Type: Gastric) it was “(2/8)”; in assay [2] (Cancer Type: Pancreas), “(4/9)”. In addition, the “Detection Sensitivity of Cancers, Percentage (%)” value is 30% in assay [1]; 50% in assay [2] (Cancer Type: Bladder); 50% in assay [2] (Cancer Type: Brest); 25% in assay [2] (Cancer Type: Gastric); 44% in assay [2] (Cancer Type: Pancreas).

B4: clone 1105: rat IgM anti-TMEM-180 monoclonal antibody; variable regions SEQ ID NOs: 102 and 103 (antibody, V domains shown)
VH: B3 VH with T72S, G81A, S89T, Y118E, M119K, D122A, V128T, M129L
VL: B3 VL with T22I, F32S, T117A, K127R
Regarding B4, the “Detection Sensitivity of Cancers, P/N” value in assay [1] is listed as “(3/10)”; in assay [2] (Cancer Type: Brest), “(3/6)”; in assay [2] (Cancer Type: Gastric), “(2/8)”; in assay [2] (Cancer Type: Pancreas) it was “(4/9)”. Moreover, the “Detection Sensitivity of Cancers, Percentage (%)” value in assay [1] is 30%; in assay [2] (Cancer Type: Bladder), 50%; in assay [2] (Cancer Type: Brest) it was 50%; in assay [2] (Cancer Type: Gastric), 25%; in assay [2] (Cancer Type: Pancreas), 44%.

B5: clone 101: rat IgM anti-TMEM-180 monoclonal antibody; variable regions SEQ ID NOs: 15 and 16 (antibody, V domains shown)
VH: MAILVLLLCLVTIPHSVLSQVQLKETGPGLVQPTQTLSITCTVSGFSLTSYYMQWVRQTPGKGLEWMGFIRSGGSTEYNSEFKSRLSISRDTSKNQVFLKMNSLKTEDTGVYYCARAFYGGYYFDYWGQGVMVTVSS
VL: MGIRMESHTRVFIFLLLWLSGADGDIVMTQSPTSISISVGERVTMNCKASQNVGSNVDWYQQKTGQSPKLLIYKASNRYTGVPDRFTGSGSGTDFTFTISNMQAEDLAVYYCMQSNTKYTFGAGTKLELK
With B5, the “FACS reactivity to colon cancers” value in the assay on colon cancer cell lines is “positive for four types of colon cancers”. The “cytocidal effects against DLD-1 cells” value with colon cancer DLD-1 cells was “demonstrated cytocidal effects”. Besides, the “FACS reactivity to brain tumors” value in the assay on brain tumor cell lines is given as “negative for all of the brain tumors”. In addition, the “fluorescent immunostaining (pattern, intensity)” value in the assay with DLD-1 colon cancer cells was “weaker fluorescence intensity than clone 98 and the cytoplasm was also stained”. Further, the “cytocidal effects against K562 cells” value in assay [3] is reported as “did not demonstrate cytocidal effects”.
